Assay results reported in US20200277374A1 (Alector, published 2020).

What was measured:
[1] = target: T1, human Siglec-7 expressed on human cells (primary monocytes, dendritic cells, macrophages, NK cells, … (human, UniProt Q9Y286 19-467)); assay: cell-based or functional assay
[2] = target: T1, human Siglec-7 expressed on human cells …; assay: cell-based or functional assay; remark: listed apart in the source
[3] = target: T1, human Siglec-7 expressed on human cells …; assay: FACS, human primary monocytes, 10 ug/ml mAb
[4] = target: T1, human Siglec-7 expressed on human cells …; assay: FACS, human primary macrophages, 10 ug/ml mAb
[5] = target: T1, human Siglec-7 expressed on human cells …; assay: FACS, human primary dendritic cells, 10 ug/ml mAb
[6] = target: T1, human Siglec-7 expressed on human cells …; assay: FACS titration on primary human dendritic cells, donor 358, 4 C
Method: (§1) Two Siglec-7 antibodies, 4E3 and 10B5, were titrated 2-fold for a 12-point curve with a concentration range of 6.67-0.00325 nM to assess binding and calculate half-maximal concentration (EC₅₀) for binding to primary human dendritic cells (FIG. 5B). Antibodies were serially diluted and incubated with cells in PBS with 1% BSA, 1 mM EDTA for 1 hour on ice (4° C.). Cells were pelleted and resuspended with goat anti-mouse secondary antibody conjugated with APC (BD Biosciences) at a 1:200 dilution in buffer. Secondary detection antibody was incubated for 30 minutes on ice (4° C.), then cells were washed 3 times in buffer before analyzing on a BD FACS Canto for APC MR. Data were analyzed with FlowJo Software (TreeStar).

[7] = target: T1, human Siglec-7 expressed on human cells …; assay: FACS titration on primary human dendritic cells, donor 359, 4 C
Method: as §1

[8] = target: T2, Histidine-tagged human Siglec-7 (NovoProtein) (human, UniProt Q9Y286 19-357, limits assumed); assay: SPR (BiaCore T200, 25 C), antibody captured on anti-mouse IgG, Siglec-7-His 100 nM, single-concentration kinetics
T2 construct: Bought protein; also called purified Siglec-7-his tagged protein; not shown: histidine tag
Method: SPR data was collected at a rate of 10 Hz at 25′ C on a BiaCore T200 instrument. Data analysis was performed using BiaCore T200 Evaluation Software, version 2.0. HBS-EP+ (100 mM HEPES, 1.5 M NaCl, 30 mM EDTA, 0.5% v/v Surfactant P20, pH 7.4) was used as running buffer and for preparing reagents.
Mouse-derived antibodies (25 nM) against Siglec-7 were captured (60 s contact time, 30 μL/min flow rate, 0 s stabilization time) on a CM5 sensor chip (GE Healthcare) immobilized with anti-mouse IgG. Histidine-tagged human Siglec-7 (NovoProtein) was then flowed over the captured anti-Siglec-7 surface (120 s contact time, 30 μL/min flow rate, 300 s dissociation time). Concentration of antigen ranged from 5 nM to 100 nM, depending on information obtained from an initial screen. Duplicate single-concentration trials were performed and bracketed by a blank (0 nM antigen) sample. The chip surface was regenerated in between cycles using 10 mM glycine-HCl, pH1.7 (60 s contact time, 30 μL/min flow rate, 60 s stabilization time). The resulting SPR signal was obtained as the difference in response from measurements performed on a blank flow cell.
Affinity constants (KD) were calculated from the ratio kd/kₐ. For one antibody (clone 1E8), we validated the single-concentration analysis with a multiple-concentration approach (five concentrations of antigen used, plus one blank).

T1 sequence (Q9Y286 19-467): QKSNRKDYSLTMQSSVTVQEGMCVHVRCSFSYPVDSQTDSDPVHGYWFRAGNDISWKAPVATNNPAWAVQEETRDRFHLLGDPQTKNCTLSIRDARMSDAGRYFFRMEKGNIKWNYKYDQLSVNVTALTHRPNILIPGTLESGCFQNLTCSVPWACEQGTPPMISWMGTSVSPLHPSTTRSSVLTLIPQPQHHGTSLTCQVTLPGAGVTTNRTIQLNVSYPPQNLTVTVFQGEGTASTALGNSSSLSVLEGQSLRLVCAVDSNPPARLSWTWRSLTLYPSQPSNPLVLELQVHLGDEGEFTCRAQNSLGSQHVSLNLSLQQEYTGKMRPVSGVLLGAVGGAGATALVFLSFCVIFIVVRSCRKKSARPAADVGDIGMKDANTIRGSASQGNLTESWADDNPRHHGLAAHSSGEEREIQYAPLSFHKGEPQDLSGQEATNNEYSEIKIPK
T2 sequence (Q9Y286 19-357 limits assumed): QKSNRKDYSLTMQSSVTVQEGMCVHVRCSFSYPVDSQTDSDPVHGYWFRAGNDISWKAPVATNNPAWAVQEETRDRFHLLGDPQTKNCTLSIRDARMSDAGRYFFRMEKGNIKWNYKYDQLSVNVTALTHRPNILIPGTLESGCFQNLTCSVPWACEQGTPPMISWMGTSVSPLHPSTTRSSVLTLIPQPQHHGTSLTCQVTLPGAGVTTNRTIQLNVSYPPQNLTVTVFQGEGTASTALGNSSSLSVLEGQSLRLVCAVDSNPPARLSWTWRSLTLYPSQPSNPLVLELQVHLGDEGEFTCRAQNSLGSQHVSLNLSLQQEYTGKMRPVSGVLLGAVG

B1: anti-Siglec-7 antibody 10B5 (antibody, V domains shown)
VH: QVHLQQSGPELVKPGASVKISCKASGYAFTNCWMNWVRQRPGKGLDWIGRIFPGNGHTNYSGKFKDKATLTEDKSSSTAYMQLSSLTSEDSAVYFCARDYSDYYFDYWGQGTTLTVSS
VL: DVQMTQTTSSLSASLGDRVTISCRASQDINTYLNWYQQKPDGTVKLLIYYTSRLHSGVPSRFSGSGSGTDYSLTISNLEQEDIATYFCQQGNTLPWTFGGGTKLEIK
notes: that light chain holds several Z and differs in its CDRs from S7-10B5.1 / 10B5L1; also called S7-10B5; mAb S7-10B5
Percent Siglec-7 Surface Expression, DCs [1]: 16.8% | Percent Siglec-7 Surface Expression, Monocytes [1]: 6.7% | Percent Siglec-7 Surface Expression, U937 cells [1]: 36.5% | Percent Siglec-7 Surface Expression, Macrophages [2]: 3.2% | Percent Siglec-7 Surface Expression, Microglia [2]: 5.5% | Percent Siglec-7 Surface Expression, NK cells [2]: 25.5% | % Positive [3]: 99.2% | MFI [3]: 417 | % Positive [4]: 99.7% | MFI [4]: 6030 | % Positive [5]: 99.6% | MFI [5]: 3230 | EC50 [6]: 1.43 nM | EC50 [7]: 1.16 nM | Kd [8]: 3 nM
